The test concerns the target laminin isolated from Engelbreth-Holm-Swarm murine sarcoma basement membrane. In words: ELISA. The conditions noted are these: chain shown with the change; 20 µg protein per well; laminin 0.5 µg per well; parent: est. 3.1; read off a plot. (In an ELISA, binding on a coated surface is turned into a signal by an enzyme label.)

B1: wild-type full-length (C24-P237) pallilysin, O83732 H198A (protein)
chain: CFQHGHVPPRRIPPHDTFGALPTAALPSNARDTAAHPSDTADNTSGSSTTTDPRSHGNAPPAPVGGAAQTHTQPPVQTAMRIALWNRATHGEQGALQHLLAGLWIQTEISPNSGDIHPLLFFDREHAEITFSRASVQEIFLVDSAHTHRKTVSFLTRNTAISSIRRRLEVTFESAEVIHVRAVEDVARLKIGSTSMWDGQYTRYHAGPASAPSP
Turning to B1, the response (O.D. (492 nm)) was 3.1.

B2: wild-type full-length (C24-P237) pallilysin, O83732 E199A (protein)
chain: CFQHGHVPPRRIPPHDTFGALPTAALPSNARDTAAHPSDTADNTSGSSTTTDPRSHGNAPPAPVGGAAQTHTQPPVQTAMRIALWNRATHGEQGALQHLLAGLWIQTEISPNSGDIHPLLFFDREHAEITFSRASVQEIFLVDSAHTHRKTVSFLTRNTAISSIRRRLEVTFESHAVIHVRAVEDVARLKIGSTSMWDGQYTRYHAGPASAPSP
Take B2: the response (O.D. (492 nm)) was found to be 3.3.

B3: wild-type full-length (C24-P237) pallilysin, O83732 H202A (protein)
chain: CFQHGHVPPRRIPPHDTFGALPTAALPSNARDTAAHPSDTADNTSGSSTTTDPRSHGNAPPAPVGGAAQTHTQPPVQTAMRIALWNRATHGEQGALQHLLAGLWIQTEISPNSGDIHPLLFFDREHAEITFSRASVQEIFLVDSAHTHRKTVSFLTRNTAISSIRRRLEVTFESHEVIAVRAVEDVARLKIGSTSMWDGQYTRYHAGPASAPSP
In the case of B3, the response (O.D. (492 nm)) was found to be 3.

The record behind these values is article PMC3406077 (2012).
